The values that follow come from patent publication US20200071417A1 (MARENGO THERAPEUTICS, published 2020).

Experiment [1] concerns the target T1, mouse CSF1R (mouse, UniProt P09581 20-977).
T1 construct: whole, on cells; the mouse protein was used in the assays; also called mCSF1R
T1 sequence (looked up): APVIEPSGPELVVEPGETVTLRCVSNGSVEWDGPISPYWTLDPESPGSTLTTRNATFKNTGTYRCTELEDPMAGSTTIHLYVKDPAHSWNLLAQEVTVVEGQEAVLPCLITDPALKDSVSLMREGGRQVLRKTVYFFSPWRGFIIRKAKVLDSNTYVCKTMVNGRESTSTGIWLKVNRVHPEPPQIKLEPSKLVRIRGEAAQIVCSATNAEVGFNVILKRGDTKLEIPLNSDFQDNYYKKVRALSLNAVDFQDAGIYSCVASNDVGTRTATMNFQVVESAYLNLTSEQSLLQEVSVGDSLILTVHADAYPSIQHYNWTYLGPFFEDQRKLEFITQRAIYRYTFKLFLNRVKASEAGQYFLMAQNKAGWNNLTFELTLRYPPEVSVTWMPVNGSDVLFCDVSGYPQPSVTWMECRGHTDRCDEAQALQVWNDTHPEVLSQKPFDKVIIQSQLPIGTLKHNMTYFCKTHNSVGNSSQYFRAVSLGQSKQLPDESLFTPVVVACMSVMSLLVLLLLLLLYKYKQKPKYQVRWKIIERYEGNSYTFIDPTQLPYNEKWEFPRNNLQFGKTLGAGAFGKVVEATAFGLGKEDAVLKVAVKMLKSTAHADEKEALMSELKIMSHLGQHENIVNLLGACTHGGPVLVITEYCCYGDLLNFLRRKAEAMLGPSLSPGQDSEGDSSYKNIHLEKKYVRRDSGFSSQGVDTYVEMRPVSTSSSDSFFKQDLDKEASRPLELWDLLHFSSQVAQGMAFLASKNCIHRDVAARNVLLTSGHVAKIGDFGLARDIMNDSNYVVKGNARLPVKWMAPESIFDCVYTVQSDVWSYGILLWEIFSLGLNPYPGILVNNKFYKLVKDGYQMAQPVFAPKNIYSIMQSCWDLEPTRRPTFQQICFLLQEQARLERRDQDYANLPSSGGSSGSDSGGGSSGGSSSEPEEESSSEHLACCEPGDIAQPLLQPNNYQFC
Put plainly: flow cytometry on transiently transfected ExpiCHO cells expressing mouse CSF1R only. How it is done: (§1) ExpiCHO cells were transiently transfected with mouse CCR2, mouse CSF1R, or both mouse CCR2 and CSF1R, according to the manufacturer's instructions. In brief, the transfections were performed with ExpiCHO cells at a cell density of 5.6-6.3×10⁶ cells/mL and at least 95% viability. For each transfection, 25 μg of DNA was diluted with 1 mL of OptiPro SFM (Gibco 12309050) and filtered using spin-X centrifuge tube filters (Corning 8160). A solution of 920 μL of OptiPro and 80 μL of expifectamine was added to the filtered DNA, incubated for 1 minute at room temperature, and then added to the cells. On day 1 of the transfection, the cells were enhanced using 150 μL of ExpiCHO enhancer.
(§2) On day 2 of the transfection, the cells were washed with PBS containing 1% BSA (Sigma) and used to set 96-well V-bottom plates (Biotix AP-0350-9CVS) with 100,000 cells/well. UniTI-01 was added to the cells in serial dilutions and incubated for 1 hour at 4° C. The plates were washed twice with PBS containing 1% BSA. […] The plates were read on a CytoFLEX S (Beckman Coulter). Data were calculated as the median fluorescence intensity of the PE-positive population vs. the median fluorescence intensity of the PE-negative population. The data was normalized for the percent of total median fluorescence intensity. […]

The target in experiment [2] is T2, mouse CCR2 (mouse, UniProt P51683 1-373).
T2 construct: whole, on cells; the mouse protein was used in the assays; also called mCCR2
Put plainly: flow cytometry on transiently transfected ExpiCHO cells expressing mouse CCR2 only. How it is done: as §1, §2

Experiment [3] deals with T3, mouse CCR2 and mouse CSF1R co-expressed on the same ExpiCHO cells (mouse, UniProt P51683 1-373; P09581 20-977).
T3 construct: whole, on cells; also called both mCCR2 and mCSF1R; CCR2 and CSF1R double positive cells
Put plainly: flow cytometry on transiently transfected ExpiCHO cells expressing both mouse CCR2 and mouse CSF1R. How it is done: as §1, §2

T2 sequence (P51683 whole entry): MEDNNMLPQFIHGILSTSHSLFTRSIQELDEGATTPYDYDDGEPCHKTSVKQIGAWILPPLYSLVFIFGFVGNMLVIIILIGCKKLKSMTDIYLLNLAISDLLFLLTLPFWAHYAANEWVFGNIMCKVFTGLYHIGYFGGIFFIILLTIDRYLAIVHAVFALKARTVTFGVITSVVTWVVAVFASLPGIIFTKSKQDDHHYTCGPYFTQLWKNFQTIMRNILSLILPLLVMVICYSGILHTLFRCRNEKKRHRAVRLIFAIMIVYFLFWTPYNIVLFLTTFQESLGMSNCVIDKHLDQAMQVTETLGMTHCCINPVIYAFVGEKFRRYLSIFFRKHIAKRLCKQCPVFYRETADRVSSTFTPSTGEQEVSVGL
T3 sequence (P51683 whole entry, one chain of several): as the sequence (P51683 whole entry) above

B1: UniTI-01 (multispecific molecule #1), anti-CCR2/anti-CSF1R bispecific antibody (bispecific antibody)
heavy 1: QVQLQESGPGLVQPSQTLSLTCTVSGFSLTDFSVHWVRQPPGKGLEWMGRIRSEGNTDYNSALKSRLSISRDTSKSQVFLKMNSLQTEDTAIYFCTRGDILGFGYWGQGVMVTVSSAQTTAPSVYPLAPGCGDTTSSTVTLGCLVKGYFPEPVTVTWNSGALSSDVHTFPAVLQSGLYTLTSSVTSSTWPSQTVTCNVAHPASSTKVDKKVERRTIKPCPPCKCPAPNLLGGPSVFIFPPKIKDVLMISLSPIVTCVVVDVSEDDPDVQISWFVNNVEVHTAQTQTHREDYNSTLRVVSALPIQHQDWMSGKEFKCKVNNKDLPAPIERTISKPKGSVRAPQVYVLPPCEEEMTKKQVTLWCMVTDFMPEDIYVEWTNNGKTELNYKNTEPVLDSDGSYFMYSKLRVEKKNWVERNSYSCSVVHEGLHNHHTTKSFSRTPGK
light 1: DIVMTQSPLSVSVTPGESASISCRSSKSLLHFKGITFVYWYLQKPGQSPQLLIFRMSSLASGVPDRFSGSGSETDFTLKISRVEAEDVGTYYCGQLLENPYTFGAGTKLELKRADAAPTVSIFPPSMEQLTSGGATVVCFVNNFYPRDISVKWKIDGSEQRDGVLDSVTDQDSKDSTYSMSSTLSLTKVEYERHNLYTCEVVHKTSSSPVVKSFNRNEC
heavy 2: QVQLQQSGAELVKPGSSVKISCKASGYTFTSNFMHWIKQQPGNGLEWIGWIYPGDGDTEYNQKFNGKATLTADKSSSTAYMQLSSLTSEDSAVYFCAVNYGGYVLDAWGQGASVTVSSAETTAPSVYPLAPGTALKSNSMVTLGCLVKGYFPEPVTVTWNSGALSSGVHTFPAVLQSGLYTLTSSVTVPSSTWSSQAVTCNVAHPASSTKVDKKIVPRECNTIKPCPPCKCPAPNLLGGPSVFIFPPKIKDVLMISLSPIVTCVVVDVSEDDPDVQISWFVNNVEVHTAQTQTHREDYNSTLRVVSALPIQHQDWMSGKEFKCKVNNKDLPAPIERTISKPKGSVRAPQVCVLPPPEEEMTKKQVTLSCAVTDFMPEDIYVEWTNNGKTELNYKNTEPVLDSDGSYFMVSKLRVEKKNWVERNSYSCSVVHEGLHNHHTTKSFSRTPGK
light 2: EIVLTQSPTTMAASPGEKVTITCRASSSTNYMSWYQQKSGASPKPWIYETSKLASGVPDRFSGSGSGTSYSFTISSMETEDAATYYCHQWSSTPLTFGSGTKLEIKRADAAPTVSIFPPSMEQLTSGGATVVCFVNNFYPRDISVKWKIDGSEQRDGVLDSVTDQDSKDSTYSMSSTLSLTKVEYERHNLYTCEVVHKTSSSPVVKSFNRNEC
notes: Knob-in-hole heterodimer with one anti-CCR2 arm and one anti-mCSF1R arm
As to B1, the EC50 amounted to 1 nM in experiment [1], 15 nM in experiment [2] and 0.4 nM in experiment [3].
